Test results as given in patent publication US8415106B2, “Cell-based screen for agents useful for reducing neuronal demyelination or promoting neuronal remyelination” (Myelin Repair Foundation, Inc., priority 2005, dated 2013).
Read-outs that look alike come from different tables or passages of the source.

Test system: myelinating oligodendrocytes in the CNS
Format: in vivo
Text: To study the effect of INF-γ on the myelination of oligodendrocytes during mouse development, transgenic mice that allow for temporally regulated delivery of IFN-γ to the CNS using the tetracycline (tet) controllable system (Lin, et al. (2004) J. Neurosci. 24: 10074-10083) were generated. To drive tTA expression in astrocytes, the transcriptional regulatory region of the glial fibrillary acidic protein (GFAP) gene was chosen (Brenner, et al. (1994) J. Neurosci. 14: 1030-1037). GFAP/tTA mice were mated with TRE/IFN-γ mice to produce animals hemizygous for both transgenes. When these mice are maintained on doxycycline (DOX+), expression of the IFN-γ transgene is repressed (FIG. 10A); when the double transgenic mice are released from doxycycline (DOX−) INF-γ is expressed. For the purpose of these experiments, mice received doxycycline up to day 14 of development (E14), at which time the experimental animals (DOX−) stopped receiving doxycycline, while the control animals (DOX+) were continuously fed the dug. The mRNA for IFN-γ could be detected in the DOX− mice as early as 10 days after birth (data not shown).
Brain and spinal cord tissue were analyzed using immunohistochemical methods as follows. Anesthetized mice were perfused through the left cardiac ventricle with 4% paraformaldehyde in 0.1M PBS. The half-saggital brains and transcervical spinal cord were removed, postfixed with paraformaldehyde, cryopreserved in 30% sucrose, embedded in OCT and frozen on dry ice. Frozen sections were cut in a cryostat at a thickness of 10 μm. Coronal sections at the fornix region of the corpus callosum corresponding to. Sidman sections 241-251 were selected for use, and all comparative analyses were restricted to midline corpus callosum (Sidman, et al. (1971) Atlas of the Mouse Brain and Spinal Cord (Harvard Univ. Press, Cambridge, Mass.). For immunohistochemistry, frozen sections were treated with −20° C. acetone, blocked with PBS containing 10% NGS and 0.1% Triton X-100 and incubated overnight with the primary antibody diluted in blocking solution. Appropriate fluorochrome- or enzyme-labeled secondary antibodies (Vector Laboratories, Burlingame, Calif.) were used for detection. An antibody against CC1 (APC7, 1:50; EMD Biosciences, Inc., La Jolla, Calif.) was used as a marker for mature oligodendrocytes. Antibody against MBP (1:1000; Sternberger Monoclonals, Lutherville, Mass.) was used to verify the degree of myelination. Antibody against active-caspase-3 (1:50, Cell signaling Technology, Beverly, Mass.) was used as a marker for apoptotic cells. Fluorescent stained sections were mounted with Vectashield mounting medium with DAPI (Vector Laboratories) and visualized with a Zeiss Axioplan fluorescence microscope. Images were captured using a Photometrics PXL CCD camera connected to an Apple Macintosh computer using the Open Lab software suite. Immunopositive cells were quantified by counting positive cells within the median of the corpus callosum, confined to an area of 0.04 mm^2. Only those cells with nuclei observable by DAPI staining were counted. Each MBP immunostaining slide was scored on a scale of zero to four. A score of zero indicates complete demyelination, and a score of four indicates normal myelination in the corpus callosum of adult mice. […]

B1: IFN-γ: pleotropic cytokine secreted by activated T lymphocytes and natural killer cells; recombinant rat IFN-γ added to cultures or transgenically expressed in mouse CNS (protein, UniProt P01581 23-156, looked up)
Interferon gamma: QGTLIESLESLKNYFNSSSMDAMEGKSLLLDIWRNWQKDGNTKILESQIISFYLRLFEVLKDNQAISNNISVIESHLITNFFSNSKAKKDAFMSIAKFEVNNPQIQHKAVNELIRVIHQLSPESSLRKRKRSRC
B1 was tested, and the “unmyelinated axons in the spinal cord” value (14-day-old, IFN-γ expressed, PERK+/− background, doxycycline-maintained 9.8%±6.1%) was 81%±14.9%, the “decrease of oligodendrocyte numbers in the spinal cord” value (14-day-old, IFN-γ expressing, PERK+/− background) was “more than 50%” and the “unmyelinated axons in the spinal cord” value (14-day-old, released from doxycycline at E14, wild-type background) was 30%±12.9%. For the same molecule, the “mice that died by post natal day (PND) 27” value (double transgenic, released from doxycycline at E14, PERK+/− background) was “more than 90%” and the “TUNEL positive oligodendrocytes in the cervical spinal cord, PERK+/− versus wild-type background” value (released from doxycycline at E 14) was 2.5 times.
